Changes are numbered by the printed parent chain. Read-outs that look alike come from different tables or passages of the source. One block for each binder: values may come before it.
Tests used:
[1] = target: T1, recombinant human PCSK9, V5-, His-tagged (human, UniProt Q8NBP7 31-692, limits assumed); test: cell-based or functional assay
[2] = target: T1, recombinant human PCSK9, V5-, His-tagged; test: cell-based or functional assay; remark: listed apart in the source
[3] = target: T1, recombinant human PCSK9, V5-, His-tagged; test: SPR (Biacore 2000), Direct & Ab Capture, mean N = 3
Method: SPR measurements were performed using a Biacore™ (Pharmacia Biosensor AB, Uppsala, Sweden) 2000 system. Sensor chip CM5 and Amine coupling kit for immobilization were from Biacore™.
Anti-Fab IgG (Human specific) was covalently coupled to surfaces 1 and 2 of a Sensor Chip CM5 via primary amine groups, using the immobilization wizard with the “Aim for immobilization” option. A target immobilization of 5000 RU was specified. The wizard uses a 7 minute activation with a 1:1 mixture of 100 mM NHS and 400 mM EDC; injects the ligand in several pulses to achieve the desired level, then deactivates the remaining surface with a 7 minute pulse of ethanolamine.
Anti-PCSK9 Fabs were captured on capture surface 2 and surface 1 was used as a reference for kinetic studies of Fab:PCSK9 interactions. Fab was captured by flowing a 500 ng/ml solution at 5 μl/min for 1-1.5 minutes to reach a target RL for an Rₘₐₓ of 100-150 RU for the reaction. 5-10 concentrations of hPCSK9v5H is or mPCSK9v5H is antigens were flowed across the surface at 30 μl/minute for 3-4 minutes. 15-60 minutes dissociation time was allowed before regeneration of the Anti-Fab surface with a 30 second pulse of 10 mM glycine pH 2.0.

[4] = target: T2, V5-, His-tagged secreted alkaline phosphatase protein (SEAP) (UniProt P05187 23-511); test: ELISA, immobilized V5-, His-tagged SEAP, Fab culture supernatant, HRP anti-Fab detection
T2 construct: Tag control antigen, expressed in the same cells as the PCSK9 antigen and similarly purified; not shown: V5 and His tags
Method: Cultures of individual transformants were IPTG-induced and grown overnight for Fab expression. Culture supernatants (candidate Fabs) were incubated with purified V5-, His-tagged PCSK9 protein immobilized in wells of 96-well Nunc Maxisorp plates, washed with 0.1% Tween™ 20 in PBS using a plate washer, incubated with HRP-coupled anti-Fab antibody, and washed again with PBS/Tween™ 20. Bound HRP was detected by addition of […] substrated, and A₄₅₀ values of wells were read with a plate reader.
EsB antigen was bound to three wells of the plate and subsequently incubated with anti-EsB Fab. To control for Fabs reacting with the V5 or His tags of the recombinant PCSK9 antigen, parallel ELISAs were performed using V5-, His-tagged secreted alkaline phosphatase protein (SEAP) expressed in the same cells as the original PCSK9 antigen and similarly purified. Putative PCSK9-reactive Fabs were identified as yielding>3× background values when incubated with PCSK9 antigen but negative when incubated with SEAP. Clones scoring as PCSK9-reactive in the first round of screening were consolidated onto a single plate, re-grown in triplicate, re-induced with IPTG, and re-assayed in parallel ELISAs vs. PCSK9 and SEAP. Positive and negative controls were included as described above. Clones scoring positive in at least 2 of 3 replicates were carried forward into subsequent characterizations. In cases of known or suspected mixed preliminary clones, cultures were re-purified by streaking for single colonies on 2×YT plates with chloramphenicol, and liquid cultures from three or more separate colonies were assayed again by ELISAs in triplicate as described above.

[5] = target: T1, recombinant human PCSK9, V5-, His-tagged; test: cell-based or functional assay; remark: listed apart in the source
[6] = target: T1, recombinant human PCSK9, V5-, His-tagged; test: SPR (Biacore 2000), Direct (PCSK9 immobilized, Fab in mobile phase), mean N = 2
[7] = target: T1, recombinant human PCSK9, V5-, His-tagged; test: cell-based or functional assay; remark: listed apart in the source
[8] = target: T1, recombinant human PCSK9, V5-, His-tagged; test: cell-based or functional assay; remark: listed apart in the source
[9] = target: T1, recombinant human PCSK9, V5-, His-tagged; test: cell-based or functional assay; remark: listed apart in the source

T1 sequence (Q8NBP7 31-692 limits assumed): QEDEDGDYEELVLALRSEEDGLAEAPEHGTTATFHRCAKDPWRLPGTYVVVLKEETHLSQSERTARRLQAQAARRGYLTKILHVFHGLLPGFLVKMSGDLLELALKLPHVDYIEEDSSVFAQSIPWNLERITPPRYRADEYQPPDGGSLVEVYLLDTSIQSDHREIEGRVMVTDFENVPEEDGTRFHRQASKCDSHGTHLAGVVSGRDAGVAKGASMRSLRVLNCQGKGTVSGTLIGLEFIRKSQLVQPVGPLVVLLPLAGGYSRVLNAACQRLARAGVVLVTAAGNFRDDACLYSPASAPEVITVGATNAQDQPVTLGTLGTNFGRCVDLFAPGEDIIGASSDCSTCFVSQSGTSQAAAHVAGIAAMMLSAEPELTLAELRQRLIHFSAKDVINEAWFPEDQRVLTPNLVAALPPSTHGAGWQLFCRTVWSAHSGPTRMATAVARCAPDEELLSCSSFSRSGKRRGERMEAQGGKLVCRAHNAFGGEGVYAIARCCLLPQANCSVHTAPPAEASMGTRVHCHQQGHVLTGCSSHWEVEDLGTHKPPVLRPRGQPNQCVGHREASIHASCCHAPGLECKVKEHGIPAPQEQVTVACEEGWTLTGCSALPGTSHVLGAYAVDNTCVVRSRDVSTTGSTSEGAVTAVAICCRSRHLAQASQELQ
T2 sequence (P05187 23-511): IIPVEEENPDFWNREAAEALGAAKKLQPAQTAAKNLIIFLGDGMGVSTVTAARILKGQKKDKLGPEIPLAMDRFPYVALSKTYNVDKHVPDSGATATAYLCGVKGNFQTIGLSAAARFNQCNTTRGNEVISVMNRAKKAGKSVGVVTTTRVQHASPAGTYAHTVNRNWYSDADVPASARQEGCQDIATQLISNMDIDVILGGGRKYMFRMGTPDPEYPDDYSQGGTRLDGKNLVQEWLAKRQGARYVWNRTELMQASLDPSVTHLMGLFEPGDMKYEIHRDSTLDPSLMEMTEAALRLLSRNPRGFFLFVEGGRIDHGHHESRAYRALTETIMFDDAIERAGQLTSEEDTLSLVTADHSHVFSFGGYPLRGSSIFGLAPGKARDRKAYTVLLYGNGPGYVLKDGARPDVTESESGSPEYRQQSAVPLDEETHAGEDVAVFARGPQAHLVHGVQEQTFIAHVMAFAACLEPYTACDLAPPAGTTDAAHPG

B1: 1CX1G08 (Fab, V domains shown)
VH: QVQLVESGGGLVQPGGSLRLSCAASGFTFSDYWVSWVRQAPGKGLEWVSFISYDGSSTYYADSVKGRFTISRDNSKNTLYLQMNSLRAEDTAVYYCARTYFEGVDVWGQGTLVTVSS
VL: DIELTQPPSVSVAPGQTARISCSGDNIGTYYVHWYQQKPGQAPVLVIYDDSNRPSGIPERFSGSNSGNTATLTISGTQAEDEADYYCGTWDNTSFNLVFGGGTKLTVLG
notes: also called 1CX1G08 Fab
inhibition of PCSK9-dependent inhibition of cellular LDL uptake (Exopolar assay) [1]: 53%
IC50; Fab titrated against fixed PCSK9 (25 µg/ml), recovery of cellular diI-LDL uptake (Exopolar assay) [2]: 267 nM
Kd [3]: 0.55 nM
koff [3]: 0.000176 s⁻¹
kon [3]: 335000 M⁻¹ s⁻¹
binding result [4]: no binding

B2: 3BX5C01 (Fab, V domains shown)
VH: QVQLVQSGAEVKKPGESLKISCKGSGYSFTSYGISWVRQMPGKGLEWMGMIDPSDSFTTYSPSFQGQVTISADKSISTAYLQWSSLKASDTAMYYCARGYYFTYALQPMDHWGQGTLVTVSS
VL: DIELTQPPSVSVAPGQTARISCSGDNLRDYIVHWYQQKPGQAPVLVIYDDSNRPSGIPERFSGSNSGNTATLTISGTQAEDEADYYCGFDNGGDIDVFGGGTKLTVLG
notes: also called 3BX5C01 Fab
inhibition of PCSK9-dependent inhibition of cellular LDL uptake (Exopolar assay) [1]: 25%
IC50; Fab titrated against fixed PCSK9 (25 µg/ml), recovery of cellular diI-LDL uptake (Exopolar assay) [5]: 1250 nM
Kd [6]: 23.1 nM
koff [6]: 0.000642 s⁻¹
kon [6]: 28000 M⁻¹ s⁻¹
binding result [4]: no binding

B4: 3CX2A06 (Fab, V domains shown)
VH: QVQLVQSGAEVKKPGESLKISCKGSGYSFSNFWIAWVRQMPGKGLEWMGIIDPSDSWTRYSPSFQGQVTISADKSISTAYLQWSSLKASDTAMYYCARGDGQDFDNWGQGTLVTVSS
VL: DIQMTQSPSSLSASVGDRVTITCRASQNINSYLNWYQQKPGKAPKLLIYAASSLQSGVPSRFSGSGSGTDFTLTISSLQPEDFAVYYCLQNYDLPNTFGQGTKVEIKR
notes: No SPR values are printed for this Fab; also called 3CX2A06 Fab
inhibition of PCSK9-dependent inhibition of cellular LDL uptake (Exopolar assay) [1]: 23%
IC50; Fab titrated against fixed PCSK9 (25 µg/ml), recovery of cellular diI-LDL uptake (Exopolar assay) [8]: 107 nM
binding result [4]: no binding

More lines, now with the values ahead:

inhibition of PCSK9-dependent inhibition of cellular LDL uptake (Exopolar assay) [1]: 61%
IC50; Fab titrated against fixed PCSK9 (25 µg/ml), recovery of cellular diI-LDL uptake (Exopolar assay) [7]: 127 nM
Kd [3]: 2.97 nM
koff [3]: 0.000685 s⁻¹
kon [3]: 233000 M⁻¹ s⁻¹
binding result [4]: no binding
B3: 3CX4B08 (Fab, V domains shown)
VH: QVQLVESGGGLVQPGGSLRLSCAASGFTFSNYTMNWVRQAPGKGLEWVSFISSSSSETYYADSVKGRFTISRDNSKNTLYLQMNSLRAEDTAVYYCARGYGDMVDLWGQGTLVTVSS
VL: DIELTQPPSVSVAPGQTARISCSGDSIPTYYVAWYQQKPGQAPVLVIYSDTDRPSGIPERFSGSNSGNTATLTISGTQAEDEADYYCQSFDNHGYHVFGGGTKLTVLG
notes: also called 3CX4B08 Fab

inhibition of PCSK9-dependent inhibition of cellular LDL uptake (Exopolar assay) [1]: 23%
IC50; Fab titrated against fixed PCSK9 (25 µg/ml), recovery of cellular diI-LDL uptake (Exopolar assay) [9]: 289 nM
Kd [6]: 7.01 nM
koff [6]: 0.000876 s⁻¹
kon [6]: 166000 M⁻¹ s⁻¹
binding result [4]: no binding
B5: 3CX3D02 (Fab, V domains shown)
VH: QVQLVQSGAEVKKPGESLKISCKGSGYSFTNSWIGWVRQMPGKGLEWMGIIYPSDSYTIYSPSFQGQVTISADKSISTAYLQWSSLKASDTAMYYCARGGGYYYALMDVWAQGTLVTVSS
VL: B4 VL with N28T, N30S, S31T, Y32W, V85T, N91D, Y92S, D93S, N96L
notes: also called 3CX3D02 Fab
